Assay results published in patent publication US20210403595 (published 2021).
Read-outs that look alike come from different tables or passages of the source.

How the values were obtained:
[1] = target: human CD3 on Jurkat cells (human); assay: FACS
[2] = target: human CD3 epsilon/delta heterodimer, Fc-tagged (human); assay: SPR, 25C antibody-capture
[3] = target: human CD3 on Jurkat cells (human); assay: FACS; remark: listed apart in the source
[4] = target: human CD3 epsilon/delta heterodimer, Fc-tagged (human); assay: SPR, 25C antigen-capture
[5] = target: human CD3 epsilon/delta heterodimer, Fc-tagged (human); assay: SPR, 25C antibody-capture; remark: listed apart in the source
[6] = target: human CD3 epsilon/delta heterodimer, Fc-tagged (human); assay: SPR, 25C antibody-capture; remark: listed apart in the source
[7] = target: human CD3 on Jurkat cells (human); assay: FACS; remark: listed apart in the source
[8] = target: T1, cynomolgus CD3 on T cells (cynomolgus monkey); assay: FACS
T1 chain: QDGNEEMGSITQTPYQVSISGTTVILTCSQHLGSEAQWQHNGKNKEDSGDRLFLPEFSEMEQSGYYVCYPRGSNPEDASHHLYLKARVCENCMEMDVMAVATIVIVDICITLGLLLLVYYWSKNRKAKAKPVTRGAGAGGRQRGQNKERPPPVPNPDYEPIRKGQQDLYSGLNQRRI

[9] = target: human CD3 epsilon/delta heterodimer, Fc-tagged (human); assay: SPR, 37C
[10] = target: T1, cynomolgus CD3 on T cells; assay: FACS
[11] = target: human CD3 epsilon/delta heterodimer, Fc-tagged (human); assay: SPR, 37C; remark: listed apart in the source
[12] = target: human CD3 on Jurkat cells (human); assay: FACS; remark: listed apart in the source

human CD3 on Jurkat cells (human), sequence (chain, as listed by the source, chain 1 of 2): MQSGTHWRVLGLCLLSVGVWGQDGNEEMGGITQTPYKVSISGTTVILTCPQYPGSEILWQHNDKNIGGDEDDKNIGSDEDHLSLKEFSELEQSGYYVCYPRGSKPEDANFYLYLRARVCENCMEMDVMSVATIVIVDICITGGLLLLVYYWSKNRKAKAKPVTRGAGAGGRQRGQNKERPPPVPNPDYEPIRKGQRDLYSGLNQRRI
human CD3 on Jurkat cells (human), sequence (chain, as listed by the source, chain 2 of 2): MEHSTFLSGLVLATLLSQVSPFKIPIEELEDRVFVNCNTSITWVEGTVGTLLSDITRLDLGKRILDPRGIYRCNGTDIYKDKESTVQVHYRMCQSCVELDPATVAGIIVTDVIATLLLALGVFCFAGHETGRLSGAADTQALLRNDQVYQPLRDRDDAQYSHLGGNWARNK
human CD3 epsilon/delta heterodimer, Fc-tagged (human), sequence (chain, as listed by the source mutant, chain 1 of 2): as the sequence (chain, as listed by the source, chain 1 of 2) above
human CD3 epsilon/delta heterodimer, Fc-tagged (human), sequence (chain, as listed by the source mutant, chain 2 of 2): as the sequence (chain, as listed by the source, chain 2 of 2) above

B1: H2M3548N (antibody, V domains shown)
VH: EVQLVESGGGLVQPGRSLRLSCAASGFKFADYAMHWVRQAPGKGLEWVSEISWNSGSIGYVDSVKGRFTISRDNAKNSLYLQMNSLRAEDTALYYCVKDKSGYGHYYIGMDVWGQGTTVIVSS
VL: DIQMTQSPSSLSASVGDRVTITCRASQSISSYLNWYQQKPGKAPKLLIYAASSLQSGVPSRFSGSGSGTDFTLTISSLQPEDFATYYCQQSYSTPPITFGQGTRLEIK
In the case of B1, the EC50 [1] is reported as 1.1 nM and the Kd [2] is reported as 130 nM.

B2: H2M2704N (antibody, V domains shown)
VH: QVQLVESGGGVVQPGRSLRLSCGASGFTFRSYGMHWVRQTPGRGLEWVAMIYYDGNNKYYADSVRGRFTVSRDNSKNTLYLQMSSLRAEDTALYFCARGPGYNWLDPWGQGTLVTVSS
VL: EIVMTQSPATLSVSPGERATLSCRASQSISRNLAWYQXKPGQAPRLLIYGASTRATGIPARFSGSGSGTEFTLTISSLQSEDFAVYYCQQYNNRPLTFGGGTEVEIK
modifications: not fully specified; listing feature
With B2 the Kd [2] was 20 nM.

B3: H2M2710N (antibody, V domains shown)
VH: QVQLVESGGGVVQPGRSLRLSCAASGFTFRSFGMHWVRQAPGRGLEWVAMIYFDGKNKYYADSVRGRFTISRDNSKNTLYLEMSSLRAEDTAVYFCARGPGYNWLDPWGQGTLVTVSS
VL: EIVMTQSPATLSVSPGERATLSCRASQSVSRNLAWYQQKPGQAPRLLIYGASTRATGVPARFSGSGSGTEFTLTISSLQSEDFAVFHCQQYNNRPLTFGGGTEVEIK
Work on B3 yielded an EC50 [1] of 0.71 nM.

B4: H1H5761P (antibody, V domains shown)
VH: QVQLVESGGGVVQPGRSLRLSCAASGFTFSSYGMHWVRQAPGKGLEWVAVISYDGSNKYYADSVKGRFTISRDYSKNTLYLQMNSLRAEDTAVFYCAKGAMVRGVPYNYYYGMDVWGQGTTVTVSS
VL: DIQMTQSPSSLSASVGDRVTITCRASQGIRNDLGWFQQKPGKAPKRLIYAASSLQSGVPSRFSGSGSGTEFTLTISSLQPEDFATYYCLQHNSYPYTFGQGTKLEIK
B4 was tested, and the EC50 [3] was 2.1 nM, the Kd [4] was 53.4 nM and the Kd [5] was 5160 nM.

B5: H1H5764P (antibody, V domains shown)
VH: QVQLVESGGGVVQPGRSLRLSCAASGFTFRSFGMHWVRQAPGKGLEWVAVISYDGNYKYYADSVKGRFTISRDNSKNTLYLQMNSLRAEDTAVHYCAKGAMVRGVPYNFYYGMDVWGQGTTVTVSS
VL: DIQMTQSPSSLSASVGDRVTITCRASQVIRNDLGWYQQKPGKAPKRLIYAASSLQSGIPSRFSGSGSGTEFTLTISSLQPEDFATYYCLQHNSYPYTFGQGTKLEIK
B5 showed an EC50 [3] of 0.88 nM and a Kd [4] of 21 nM.

B6: H1H7258P (antibody, V domains shown)
VH: QVQLVESGGGLVQPGRSLRLSCAASGFTFDDYTMHWVRQGPGKGLEWVSDIGWNSNTIGYADSVKGRFTISRDNARNSLYLQMNSLRPEDTALYYCVKDKSGYGKFQYGLDVWGQGTTVTVSS
VL: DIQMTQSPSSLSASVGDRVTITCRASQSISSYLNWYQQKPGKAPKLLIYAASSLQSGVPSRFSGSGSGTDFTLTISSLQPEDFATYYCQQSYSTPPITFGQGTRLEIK
Work on B6 yielded a Kd [6] of 24 nM.

B7: H1H5751P (antibody)
chain 1: EVQLVESGGDLVQPGRSLRLSCAASGFTFDDYTMHWVRQAPGKGLEWVSIISWNGNTIDYADSVKGRFTISRDNAKNSLYLQMNSLRAEDTALYYCAKDKSGYGHFYYYVLDVWGQGTTVTVSS
chain 2: DIQMTQSPSSLSASVGDRVTITCRASQSINNYLNWYQQKPGKAPKLLIYAASSLQSGVPSRFSGSGSGTDFTLTISSLQPEDFATYYSQQSYSFPWTFGQGTKVEIK
B7 gave an EC50 [3] of 2.12 nM, a Kd [4] of 3.42 nM and a Kd [5] of 129 nM.

B8: BSPSMA/CD3-004 CD3 arm (antibody, V domains shown)
VH: EVQLVESGGGLVQPGRSLRLSCAASGFTFDDYSMHWVRQAPGKGLEWVSGISWNSGSIGYADSVKGRFTISRDNAKNSLYLQMNSLRAEDTALYYCAKDGSGYGKFYYYGMDVWGQGTTVTVSS
VL: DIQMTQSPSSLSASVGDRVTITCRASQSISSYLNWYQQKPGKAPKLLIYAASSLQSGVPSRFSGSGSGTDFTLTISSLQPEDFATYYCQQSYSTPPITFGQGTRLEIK
In the case of B8, the EC50 [7] is reported as about 1000 nM, the binding result [8] is reported as “no binding” and the binding result [9] is reported as “no binding”.

B9: BSPSMA/CD3-1800 CD3 arm (antibody, V domains shown)
VH: EVQLVESGGGLVQPGRSLRLSCAASGFTFDDYSMHWVRQAPGKGLEWVSGISWNSGSIGYADSVKGRFTISRDNAKNSLYLQMNSLRAEDTALYYCAKDGSGYGKFYYYGLDVWGQGTTVTVSS
VL: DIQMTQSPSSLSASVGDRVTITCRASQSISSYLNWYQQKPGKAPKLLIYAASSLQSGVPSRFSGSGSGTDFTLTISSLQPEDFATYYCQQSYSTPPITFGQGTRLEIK
With B9 the EC50 [7] was 126 nM, the binding result [8] was “no binding” and the binding result [9] was “no binding”.

B10: BSPSMA/CD3-1300 CD3 arm (antibody, V domains shown)
VH: EVQLVESGGGLVQPGRSLRLSCAASGFTFDDYSMHWVRQAPGKGLEWVSGISWNSGSIGYADSVKGRFTISRDNAKNSLYLQMNSLRAEDTALYYCAKYGSGYGKFYYYGLDVWGQGTTVTVSS
VL: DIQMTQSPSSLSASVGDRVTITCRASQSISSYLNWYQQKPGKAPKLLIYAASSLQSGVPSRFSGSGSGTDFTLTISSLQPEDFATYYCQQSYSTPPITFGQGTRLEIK
For B10, the EC50 [10] was 2170 nM, the EC50 [7] was 102 nM and the Kd [11] was 122 nM.

B11: H2M3543N (antibody, V domains shown)
VH: EVQLVESGGGLVQPGRSLRLSCAASGFTFDDYTMHWVRQAPGKGLEWVSDISWNSGSIGYADSVKGRFTVSRDNAKNSLYLQMNSLRGEDTALYYCAKDMSGYAHYGYYGMDVWGQGTTVTVSS
VL: DIQMTQSPSSLSASVGDRVTITCRASQSIRNYLNWYQQKPGKVPKLLIYAASSLQSGVPSRFSGSGSGTDFTLTISSLQPEDFATYYCQQSYSNPPITFGQGTRLEIK
With B11 the Kd [2] was 30 nM.

B12: H2M3541N (antibody, V domains shown)
VH: EVQLVESGGGLVRPGRSLRLSCAASGFTFDDYTMHWVRQAPGKGLEWVSDISWNSGTIGYADSVKGRFTISRDNAKNSLYLQMNSLRPEDTALYYCAKDMSGYAHYYYYGMDVWGQGTTVTVSS
VL: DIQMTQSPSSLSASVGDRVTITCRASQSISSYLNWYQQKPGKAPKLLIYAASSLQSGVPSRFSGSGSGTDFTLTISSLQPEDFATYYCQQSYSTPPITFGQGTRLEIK
Work on B12 yielded an EC50 [1] of 3.7 nM.

B13: H2M2778N (antibody, V domains shown)
VH: EVQLVESGGGLVQPGRSLRLSCAASGFTFDDYSMHWVRQAPGKGLEWVSGISWNSRSIDYADSVKGRFTISRDNAKNSLYLQMNSLRAEDTALYYCVKDNSGYGRYYYYGMDVWGQGTTVSVSS
VL: KIVMTQSPATLSVSPGERATLSCRASQSVSGNLAWYQQKPGQAPRLLIYGASTRATSIPARFSGSGSGTEFTLTISSLQSEDFAVYFCQHYYNWPLTFGGGTKVEIR
B13 was tested, and the Kd [2] was 8.9 nM.

B14: BSPSMA/CD3-1100 CD3 arm (antibody, V domains shown)
VH: EVQLVESGGGLVQPGRSLRLSCAASGFTFDDYSMHWVRQAPGKGLEWVSGISWNSGSKGYADSVKGRFTISRDNAKNSLYLQMNSLRAEDTALYYCAKYGSGYGKFYHYGMDVWGQGTTVTVSS
VL: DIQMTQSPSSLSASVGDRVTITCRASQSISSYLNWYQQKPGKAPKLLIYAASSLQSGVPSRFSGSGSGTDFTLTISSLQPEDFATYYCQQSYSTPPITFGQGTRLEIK
Work on B14 yielded an EC50 [10] of 890 nM, an EC50 [7] of 18.3 nM and a Kd [11] of 11.1 nM.

B15: H1H5796B (antibody, V domains shown)
VH: EVQLVESGAEVKKPGASVKVSCKTSGYTFTGYYMHWIRQAPGQGLEWMGWINPKSGGTNYAQKFQGRVTMTRDTSISTAYMELSRLRSDDMAVYYCARMGDGAVFDFWGQGTLVTVSS
VL: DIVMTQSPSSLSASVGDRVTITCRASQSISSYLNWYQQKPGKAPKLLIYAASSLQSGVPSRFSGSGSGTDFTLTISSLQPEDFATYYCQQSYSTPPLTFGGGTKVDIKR
B15 was tested, and the EC50 [3] was 9.82 nM, the Kd [4] was 2.32 nM and the Kd [5] was 60.5 nM.

B16: H1H5753B (antibody, V domains shown)
VH: QVQLVESGGGLVQPGGSLRLSCAASYFTFSSFAMNWVRQAPGQGLEWVSAISGRVSAISGSGGITYYADSVKGRFIISRDNSKNTLYLQMSGLRAEDTAVYYCAKGPYLTTVTPFDYWGQGTLVTVSS
VL: DIQLTQSPSSVSASVGDRVTITCRASQGISSWLAWYQQKPGKAPKLLIYAVSSLQNGVPSRFSGSGSGTDFTLTISSLQPEDFATYYCQQANSFPFTFGPGTKLEIKR
B16: no binding [12].

B17: H1H5756B (antibody, V domains shown)
VH: EVQLVESGGGVVQPGRSLRLSCTASGFPFSRYGMHWVRQAPGKGLEWVTFIWYDGSNKYYADSAKGRFTITRDNSKNTVYLQMDSLRADDTAVYYCVRDQAALYYFDSWGQGTLVTVSS
VL: DIQMTQSPSSVSASVGDRVTITCRASQGISRWLAWYQQKPGKAPKLLISAASSLQSGVPSRFSGSGSGTDFTLTISGLQPEDFATYYCQKANSFPFTFGPGTKLEIKR
B17: no binding [12].

B18: H1H5785B (antibody, V domains shown)
VH: QVQLVESGGGVVQPGRSLRLSCAASGLTFSTYVMHWVRQAPGKGLAWVAVIANDGSNKYYADSVKGRFTISRDNSKNTLYLQMNSLRPEDTAVYFCAKEGGTSGSYYYYGMDVWGQGTTVTVSS
VL: DIQMTQSPDSLAVSLGERATINCKSSQSLLFNSINKNYLAWYQQKPGQPPKLLLYWASTRESGIPDRFSGSGSGTDFTLTITSLQAEDVALYYCQQYYSIPWTFGQGTKVEIKR
B18: no binding [12].

B19: H1H5777P (antibody, V domains shown)
VH: EVQLVESGGGLVQPGRSLRLSCAASGFTFDDYAMHWVRQAPGKGLEWVSGISWNSGSRDYADSVKGRFTISRDNARNSLFLQMNSLSTEDTALYYCAKDKSGYGSYYYGMDVWGQGTTVTVSS
VL: EIVLTQSPGTLSLSPGDRATLSCRASQSIRSIYLAWYQQKPGQAPRLLIHGASTRATGIPDRFSGSGSGTDFTLTISRLEPEDFAVYYCQQRVSSPYTFGQGTKLEIK
B19 was tested, and the EC50 [3] was 0.571 nM, the Kd [4] was 3.52 nM and the Kd [5] was 224 nM.

B20: H1H5769P (antibody, V domains shown)
VH: EVQLVESGGGLVQPGRSLRLSCAASGFTFDDYTMHWVRQVPGKGLEWISGISWNSGSMDYADSVKGRFTISRDNARNSLFLQMNSVRTEDTALYYCAKDKSGYGSFYYGMDVWGQGTTVTVSS
VL: EIVLTQSPGTLSLSPGDRATLSCRASQSVSSIYLAWYQQKPGQAPRLLIHGASTRATGIPDRFSGSGSGTDFTLTISRLEPEDFAVYYCQQRAHSPYTFGQGTKLEIK
B20 gave an EC50 [3] of 4.1 nM, a Kd [4] of 4.41 nM and a Kd [5] of 121 nM.

B21: H1M3549N (antibody, V domains shown)
VH: EVQLVESGGGLVQPGRSLRLSCVASGFPFADYTMHWVRQAPGKGLEWVSDISWNSGSIGYADSVKGRFTISRDNAKNSLYLQMNSLRTEDTALYYCAKDMSGYAHYFYYGMDVWGQGTTVTVSS
VL: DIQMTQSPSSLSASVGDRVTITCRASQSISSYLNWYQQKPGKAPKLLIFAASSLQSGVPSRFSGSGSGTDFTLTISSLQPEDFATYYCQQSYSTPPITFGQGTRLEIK
Binder B21 has an EC50 [1] of 2.3 nM.
